# Reference: the nanobody polyreactivity screen of Harvey et al. (2022)
# Experiment: yeast display, Sf9 membrane polyspecificity reagent, FACS + sequencing; frameworks hold sequencing errors
# Summary of the method: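 Genes from sorted yeast were amplified by colony PCR, read by MiSeq 2 × 250 sequencing and filtered on CDR length. These cells carried a synthetic nanobody library in Saccharomyces cerevisiae BJ5465 and were sorted by FACS into low and high (top ~1%) gates on anti-HA and streptavidin fluorescence. Polyreactivity is labelled according to the gate of origin.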
row,Sequence,polyreactivity (PSR sort gate)
1,QVQLVESGGGLVQAGGSLRLSCDASGSTFFANAMGWYRQAPGKERELVAAITIGNTNYADSVKGRFTISRDNAKYTVYLQMNSLKPEDTAVYYCNASHVSHYRARDYWGQGTQVTVSS,low polyreactivity
2,PVQLVDSGGGLVQAGGSLRLSCAASGRIFYGYALGWYRQAPGKERDLDAAIDWSGGSTYADSVTGRFTISRDNAKNTVYLPMHSLKPEDTAVYYCATDWVTSQQPYYWIYEYWGQGTQVTVSS,low polyreactivity
3,QVQLVESGGGLVQAGGSLRLSCAASGLIFVYYDMGWYRQAPGKERELVAAISSSGSTYYADSVKGRFTISRDNAKNTVYLQMNSLKPEDTAVYYCAAEYLYWPFGSNYWGQGTQVTVSS,high polyreactivity
4,QVQLVESGGGLVQAGGSLRLSCASSGRIFGLYAMGWYRHAPGKERELVAAITLSGDGTDYADSVKGRFTISRDNAKNTVYLQMNSLKPEDTAVYYCAKVGQYWWNMDYWGQGTQVTVSS,low polyreactivity
5,HVQLQESGGGLVQAGGSLRLSCAASGNISYSRNMGWYRQAPGKERELVAAIDRGAITYYADSVKGRFTISRDNAKNTVYLQRYSLKPEDTAVYYCAAEYHDRWDHRYWGQGTQVTVSS,high polyreactivity
6,QVQLVESGGGLVQAGGSLRLSCAASGTIFLWYAMGWYIQAPGKERELVASITRGGNTYYADSVKGRFTISRDNAKNTVYLQMISLKPEDTAVYYCAAVSRFWRVPYTYDYWGQGTHVTVSS,low polyreactivity
7,QVQLVESGGGLVQAGGSLRLSCAASGRIFAGYAMGWYRQAPGKERELVASIRSSGSTYYADSVKGRFTISRDNAKNTVYLQMNSLKPEDTAVYYCNKYVPYRHLWDYGYWGQGTQVTVSS,high polyreactivity
8,QVQLVESGGGLVQAGGSLRLSCAASGRIFLRNDMGWYRQAPGKERELVAGISSDGSTYYADSVKGRFTISRDNAKNTVYLQMNSLKPEDTAVDYCARYGTDHRLGYGYWGQGTQVTVSS,low polyreactivity
9,QVQLVESGGGLVQAGGSLRLSCAASGLIFYRNAMGWYRQAPGKERELVAAISVSGGRTYYADSVKGRFTISRDNAKNTVYLQMNSLKPEDTAVYYCAAYGTTRMDYWGQGTQVTVSS,high polyreactivity
10,QVQLVESGGGLVQAGGSLRLSCAASGSILGANAMGWYRQAPGKERELVAAISYRGGSTYYADSVKGRFTISRDNAKNTVYLQMNSLKPEDTAVYYCAAVVPTGYDYWGQGTQVTVSS,low polyreactivity
11,QVQLVESGGGLVQAGGSLRLRCAASGSTFAYYAMGWYRQAPGKDRELVARIRSSGVSTYYADSVKGRFTISRDNPNNTVSLQMNTLKPEDTAGYYCHTAYAGVRYDSWGQGTQVTVSS,low polyreactivity
12,QVQLVESGGGLVQAGGSLRLSCAASGINFFVYDMGWYRQAPGKERELVAAITWSGDSTYYADSVKGRFTISRDNAKNTVYLQINSLKPVDSAVYYCAAQFDVYYSRQPYDYNRSGYWGQGTQVTVSS,low polyreactivity
13,QVQLVESGGGLVQAGGSLRLSCADSGYTFLDYAMGWYRQAPGKERELVAAINSGGSTYYADSVKGRFTISRDNAKNTVYLQMNSLKPEDTAVYYCAREDYVSYRLLYSLFDYWGQGTQVTVSS,low polyreactivity
14,QVQLVESGGGLGQAGVSLRLSCAASGRIFYFNAMGWYRQAPGKEREMVAANSWSGGSTYYADSVKGRFTISRDNAKNTVYLQMNSLKPEDTAVYYCATDSYRQGDYYLGRVDYWGQGTQVTVSS,low polyreactivity
15,QVQLEESGGGLVQAGGSLRLSCAASGGTFGQYTMGWYRQAPGKERELVAAISTRGGSTNYADSVKGRFTISRDNAKNTVYLQMNSLKPEDTAVYYCAAKDKGRYYENVGRRGLDYWGQGTQVTVSS,high polyreactivity
16,QVQLVESCGGLVQAGGSLRLSCSATGSTSVANAMGWYRQAPGKEREIVAAITGYGVSTYYADSVKGRFTISRDNAKNTVFLQMNSLKPEDTAVYYCATRGVSTSRPGYYWGQGTQVSVSS,high polyreactivity
17,QVQLVESGGGLVQAGGSLRLSCAASGFTFRWYAMRWYRQAPGKERELVADITRSGDTNYAYSVKGRFTISRDNAKNTVYLQMKSQKPEDTAVYSCAKDWAYRRHWVGFYYWGQGTQVTVSA,low polyreactivity
18,QVQHVESGGGLVQAGGSLRLSCAASGRIFGPYAMGWYRQAPGKEREFVAVITYSSGSTYYADSVKWRFTISRDNAKNTVYLQMNSLKPEDTAVYYCAARLIRSYYYGRYDYWGQGTQVTVSS,high polyreactivity
19,QVQLVESRGGLVQAGGSLRLSCDASGSTIFENVMGWYRQAPGKEREFVAAINTSGGSTYYADSVKGRFTISRDNAKNTVYLQMNSLKPEDTAVYYCARDSYWEMDYWGQGTQVTVSS,low polyreactivity
20,QVQLVESGGGLVQAGGSLRLICDASGLTFIRNAMGCYRQATGKERELVAAITRRGGSTYYADSVKGRFTISRDNAKNTVYLQMHSLQPEDTPVDYCARRLYPSASYDYDYWGQGTQETVSS,high polyreactivity
21,QVQLVESGGGLVQAGGSLRLSCAASGRISLGYAMGWYRQAPGKERELVAAITRGGTTSYAHSVKGRFTISRDNAKNTVYLQMNSLKPEDTAVYYCAVPAGYFGKWTYYYWGQGTQVTVSS,high polyreactivity
22,QVQLVESGGGLVQAGGSLRLSCAASGSIFDGYAMGWYRQAPGKEREFVAAITKRTGRTYYADSVKGRFTISRDNAKNTVYLQMNSLKPEDTAVYYCAAAIPRFSAGHYDYCGQGTQVTVSS,high polyreactivity

row,Sequence,polyreactivity (PSR sort gate)
1,QVQLVESGGGLVQAGGSLRLSCAASGSTYYTYAMGWYRQAPGKERELVAAIRGRGGRTYYADSVKGRFTISRDNAKNTVYLQMNSLKPEDTAVYYCNADGYAYYRATTRFDYWGQGTQVTVSS,high polyreactivity
2,QVQLVESGGGLVHAGGSLRLSCAASGRIFNYYAMGWYRQAPGKERALVAAISSGGSTYYADSEKGRFTISRDNAKNTVYLQMHSLKPEDTAVDYCNRVPRGVSRQDDYWGQGTQVTVSS,high polyreactivity
3,QVQLVESGGGLVQAGGSLRLSCAASGFTFDDNAMGWYRQAPGKERELVAVITKSGGRTYYADSVKGRFTLSRDNAKNTVYLQMNSLKPEDTAVYYCNADGRNWYYKWYDYWGQGTQVTVSS,low polyreactivity
4,QVQLVESGGGLVQAGGSLRLSCAASGYIFNVYAMGWYRQAPGKESELVAAISTSGGSTYYADSVKGRFSISRDNAKNTVYLQMNSLKPEDTAVYYCAAKSTLSRSHKSDYWGQGTQVTVSS,high polyreactivity
5,QVQLVESGGGLVQAGGSLRLSCAASGRTFRRYAMGWYRQAPGKERELVAAISRGANTNYADSVKGRFTISRDNAKNTVYLQMNSLKPEDTAVYYCNAKQAGYYFAFGYWGQGTQVTVSS,high polyreactivity
6,QVQLVESGGGLVQAGGTLRLSCAASGSTFSYNAMGWYRQAPGKERELVAAISGSGGRTYYADSVKGRFTISRDNAKNTVYLQMNSLKPEDTAVYYCAARVGAGWSPKYDYWGQGTQVTVSS,high polyreactivity
7,QVQLVESGGGIVQAGGSLRLSCAASGFIFKRYAMGWYRQAPGKERELVAAITTSGGRTYYADSVKGRFTISRDNAKNTVYLLMNSLKPEDTAVYYCNADYGTYWWPYYYWGQGTQVTVSS,high polyreactivity
8,QVQLVESGGGLVQAGGSLRLSCAASGPTFYYYAMGWYRQAPGKERELVAAITWSGGSTYYADSVKGRFTISRDNAKNTVYLQMNSLKPEDTAVYYCAADVTYSRYEYWGQGTQVTVSS,low polyreactivity
9,QVQLVESGGGLVQAGGSLRLSCAASGITFNTYAMGWYRHAPGKERELVAVITWSDGGTYYADSVKGRFTISRDNAKNTVYLQMNSLKPEDTAVYYCAADYDWGYDYWGQGTQVTVSS,low polyreactivity
10,QVQLVESGGGLVQAGGSLRLSCAASGRTFGNYAMGWSRQAPGKERELVAAITFRGGSTYYADSVKGRFTISRDNAKNTVYLQMNSLKPEDTAVYYCNAERYVGHTYFQFDYWGQGTQVTVSS,high polyreactivity
11,QVQLVESGGGLVQAGGTLRLSCAASGSIFYGNAMGWYREAPGKERQLVAAIDGTGASTYYADSVKGRFTISRDNAKNPVYLQMNSLKPEDTAVYYCNKALTSKDYPVRTVERDYWGQGTQVTVSS,low polyreactivity
12,QVQLVESGGGLLHAGGSLRLSCAASGSTFILYTMGWYRQAPGKERELVAAISRSSGGTYYADSVKGRFTISRDTAKNTVYLQMNSLKTEDTAVYYCAARSRGAKYDYWGQGTQVTVSS,high polyreactivity
13,QVQLVESGGGLVQAGGSLRLSCAASGSTFWYYGMGWYRQAPGKERELVAAITRGGSTYYADSVKGRFTISRDNAKNTVYLQMISLNPEDTAVYYCAAGISVRWSPSYYYWGQGTQVTVSS,high polyreactivity
14,QVQLVESGGGLVQAGGSLRLSCAASGSTFTRNTMGWYKQAPGKERELVAAISRRGGRTDYADSVKGRFTISRDNAKNTVYLQMNSLKPEDTAVYYCAADPITVDQNPRYGYWGQGTQVTVSS,high polyreactivity
15,QVQLVESGGGLVQAGGSLRLSCAASGFTFTWYAMGWYRQAPGKERELVATISRSGGRTYYADSVKGRFTISRDNAKNTVYLQLNSLKPEDTAVYYCAADTRNYPRYDYWGQGTQVTVSS,high polyreactivity
16,QVQLVESGGGLVQAGGSLRLSCAASGSIFSWYAMGWYRQAPGKERELVAAISNAGRTYYADSVKGRFTISRDNAKNTVYLQMNSLKPEDTAVYYCAAAGPRQGNYGGYEYWGQGTQVTVSS,high polyreactivity
17,QVQLVESGGGLVQAGGSLRLSCAASGIIFELYAMGWYRQAPGKERELVAAISNGDSTNYADSVKGRFTISRDNAKNTVYLQMNSLKPEDTAVYYCAARYSTYVRYDYWGQGTQVTVSS,low polyreactivity
18,QVQLVESGGGLVQAGGSLRLSCAASGRTFVGNVMGWYRQAPGKERELVAAINRDASTNYADSVKGRFTISRDNAKNTVYLQMNSLKPEDTAVYYCATRRGFFDIFYGGYDYWGQGTQVTVSS,low polyreactivity
19,QVQLVESWGGLVQAGGSLRLSCAASGSTFASYVMGWSRQAPGKERELVAAISRSGGSTYYADSVKGRFTISRDNAKYTVYLQMNSLKPEDTAVYYCNAPYLIYKKGRYDYWGQGTQVTVSS,high polyreactivity
20,QVQLVESGGGLVQAGGSLRLSCAASGRTFAAYAMGWYIQSPGKERELVAAISSTSGNTYYADSVKGRFTISRDNAKNTVYLQMNSLKPEDTAVYYCNAQRRFNANYWYDYWGQGTQVTVSS,high polyreactivity
21,QVQLVESGGGLVQAGRSLRLSCAASGFIFRRYAMGWYRQAPGKEREFVAAISSGDDTDYADSVKGRFTISRDNAKNTVYLQMNSLKPEDTAVYYCAADHRYSVKYYYWGQGTQVTVSS,low polyreactivity
